Measured values as given in patent US20230012273A1 (Boehringer Ingelheim, published 2023).

T1: cynoSIRPα (NP_001271679), Extracellular Domain + His-Tag (cynomolgus monkey)
T1 construct: also called CySIRPα NP_001271679; not shown: His-Tag
T1 chain: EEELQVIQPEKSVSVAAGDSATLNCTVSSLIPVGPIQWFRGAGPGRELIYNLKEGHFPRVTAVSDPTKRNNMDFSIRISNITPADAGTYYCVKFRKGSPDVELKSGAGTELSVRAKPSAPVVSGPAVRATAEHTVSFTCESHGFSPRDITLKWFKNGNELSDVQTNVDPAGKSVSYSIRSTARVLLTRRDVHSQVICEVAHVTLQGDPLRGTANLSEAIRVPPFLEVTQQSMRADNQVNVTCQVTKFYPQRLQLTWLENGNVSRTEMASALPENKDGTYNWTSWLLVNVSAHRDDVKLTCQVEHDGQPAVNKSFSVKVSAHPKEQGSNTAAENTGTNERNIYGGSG

T2: cynoSIRPα (XP_015313155), Extracellular Domain + His-Tag (cynomolgus monkey)
T2 construct: also called CySIRPα XP_015313155; not shown: His-Tag
T2 chain: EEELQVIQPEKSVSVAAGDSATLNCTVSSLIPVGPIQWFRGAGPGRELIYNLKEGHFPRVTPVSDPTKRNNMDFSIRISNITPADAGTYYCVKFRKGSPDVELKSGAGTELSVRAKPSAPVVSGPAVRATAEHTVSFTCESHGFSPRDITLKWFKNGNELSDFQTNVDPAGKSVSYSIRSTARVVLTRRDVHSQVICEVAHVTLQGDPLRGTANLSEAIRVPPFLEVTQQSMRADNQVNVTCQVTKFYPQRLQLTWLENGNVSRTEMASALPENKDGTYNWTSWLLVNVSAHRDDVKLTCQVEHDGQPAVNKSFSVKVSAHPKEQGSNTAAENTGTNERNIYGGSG

T3: cynoSIRPα (EGM_02252), Extracellular Domain + His-Tag (cynomolgus monkey)
T3 construct: also called CySIRPα EGM_02252; not shown: His-Tag
T3 chain: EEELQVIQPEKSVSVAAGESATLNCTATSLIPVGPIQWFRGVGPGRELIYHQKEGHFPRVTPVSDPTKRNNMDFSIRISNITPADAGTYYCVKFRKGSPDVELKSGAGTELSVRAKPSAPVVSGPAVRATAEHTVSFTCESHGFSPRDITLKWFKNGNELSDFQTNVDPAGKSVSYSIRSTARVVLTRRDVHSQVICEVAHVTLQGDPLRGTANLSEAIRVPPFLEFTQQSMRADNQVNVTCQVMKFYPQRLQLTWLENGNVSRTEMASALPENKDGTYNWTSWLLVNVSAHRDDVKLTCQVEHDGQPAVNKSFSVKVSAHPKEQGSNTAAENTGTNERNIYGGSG

B1: Antibody E1 (antibody, human IgG1, kappa, L234A L235A, V domains shown)
VH: QVQLQESGPGLVRPSETLSLTCTVSGGSIRNYYWSWIRQPPGKGLEWIGFIYYNGRTFYNPSLKSRVTISLDMSINQFSLKMTSVTAADTAVYYCARVRAYSGIGLDGTDVWGQGTTVTVSS
VL: DIVMTQSPLSLPVTPGEPASISCKSSQSLLYSNGYAYLDWYLQRPGQSPQLLIYQGSNRASGVPDRFSGSGSGTDFTLKISRVEAEDVGVFYCMQALQTPLTFGGGTKVEIKR
B2: Antibody E6 (antibody, human IgG1, kappa, L234A L235A, V domains shown)
VH: QVQLQESGPGLVRPSETLSLTCTVSGGSIRNYYWSWIRQPPGKGLEWIGFIYYNGRTFYNPSLKSRVTISLDKSKNQFSLKMTSVTAADTAVYYCARVRAYSGIGLDGTDVWGQGTTVTVSS
VL: DIVMTQSPLSLPVTPGEPASISCKSSQSLLYSNGYAYLDWYLQRPGQSPQLLIYLGSNRASGVPDRFSGSGSGTDFTLKISRVEAEDVGVYYCMQALQTPLTFGGGTKVEIKR
B3: Antibody E3 (antibody, human IgG1, kappa, L234A L235A, V domains shown)
VH: QVQLQESGPGLVRPSETLSLTCTVSGGSIRNYYWSWIRQPPGKGLEWIGFIYYNGRTFYNPSLKSRVTISLDMSKNQFSLKMTSVTAADTAVYYCARVRAYSGIGLDGTDVWGQGTTVTVSS
VL: DIVMTQSPLSLPVTPGEPASISCKSSQSLLYSNGYAYLDWYLQRPGQSPQLLIYQGSNRASGVPDRFSGSGSGTDFTLKISRVEAEDVGVFYCMQALQTPLTFGGGTKVEIKR
B4: Antibody E4 (antibody, human IgG1, kappa, L234A L235A, V domains shown)
VH: QVQLQESGPGLVRPSETLSLTCTVSGGSIRNYYWSWIRQPPGKGLEWIGFIYYNGRTFYNPSLKSRVTISLDMSKNQFSLKMTSVTAADTAVYYCARVRAYSGIGLDGTDVWGQGTTVTVSS
VL: DIVMTQSPLSLPVTPGEPASISCKSSQSLLYSNGYAYLDWYLQRPGQSPQLLIYLGSNRASGVPDRFSGSGSGTDFTLKISRVEAEDVGVYYCMQALQTPLTFGGGTKVEIKR
B5: Antibody E5 (antibody, human IgG1, kappa, L234A L235A, V domains shown)
VH: QVQLQESGPGLVRPSETLSLTCTVSGGSIRNYYWSWIRQPPGKGLEWIGFIYYNGRTFYNPSLKSRVTISLDKSKNQFSLKMTSVTAADTAVYYCARVRAYSGIGLDGTDVWGQGTTVTVSS
VL: DIVMTQSPLSLPVTPGEPASISCKSSQSLLYSNGYAYLDWYLQRPGQSPQLLIYQGSNRASGVPDRFSGSGSGTDFTLKISRVEAEDVGVFYCMQALQTPLTFGGGTKVEIKR
B6: Antibody E2 (antibody, human IgG1, kappa, L234A L235A, V domains shown)
VH: QVQLQESGPGLVRPSETLSLTCTVSGGSIRNYYWSWIRQPPGKGLEWIGFIYYNGRTFYNPSLKSRVTISLDMSINQFSLKMTSVTAADTAVYYCARVRAYSGIGLDGTDVWGQGTTVTVSS
VL: DIVMTQSPLSLPVTPGEPASISCKSSQSLLYSNGYAYLDWYLQRPGQSPQLLIYLGSNRASGVPDRFSGSGSGTDFTLKISRVEAEDVGVYYCMQALQTPLTFGGGTKVEIKR
B7: Antibody E8 (antibody, human IgG1, kappa, L234A L235A, V domains shown)
VH: QVQLQESGPGLVRPSETLSLTCTVSGGSIRNYYWSWIRQPPGKGLEWMGFIYDNGRTFYNPSLKSRVTISLDMSMNQFSLKMTSVTAADTAVYYCARVRAYSGIGLDGTDVWGQGTTVTVSS
VL: DIVMTQSPLSLPVTPGEPASISCKSSQSLLYSNGYAYLDWYLQRPGQSPQLLIYQGSNRASGVPDRFSGSGSGTDFTLKISRVEAEDVGVFYCMQALQTPLTFGGGTKVEIKR
B8: Antibody E7 (antibody, human IgG1, kappa, L234A L235A, V domains shown)
VH: QVQLQESGPGLVRPSETLSLTCTVSGGSIRNYYWSWIRQPPGKGLEWIGFIYYNGRTFYNPSLKSRVTISLDTSKNQFSLKMTSVTAADTAVYYCARVRAYSGIGLDGTDVWGQGTTVTVSS
VL: DIVMTQSPLSLPVTPGEPASISCKSSQSLLYSNGYAYLDWYLQRPGQSPQLLIYQGSNRASGVPDRFSGSGSGTDFTLKISRVEAEDVGVFYCMQALQTPLTFGGGTKVEIKR

Legend:
[1] = target: T1, cynoSIRPα (NP_001271679), Extracellular …; assay: SPR, antibody captured on Protein A/G, ECD-His analyte, 1:1 fit
Method: (§1) The binding kinetics of anti-SIRPα antibodies to various SIRPα analytes are determined by surface plasmon resonance (SPR) using a Biacore 8K+(Cytiva). 1×HBS-EP+(Cytiva) is used as running buffer and for all the dilutions unless stated otherwise. The Series S CM5 sensorchip is activated with a 1:1 mixture of 0.1 M NHS (N-hydroxysuccinimide) and 0.4 M EDC (1-Ethyl-3-(3-dimethylaminopropyl) carbodiimide hydrochloride) for 420 seconds at a flow rate of 10 μl/min and immobilized with Protein A/G (Thermo Scientific, 10 μg/ml in 10 mM acetate pH 4.5) for 420 seconds at a flowrate of 10 μl/min resulting in approximately 3000 RU of Protein A/G on the surface. The sensorchip is then deactivated with 1 M ethanolamine HCl pH 8.5 for 420 seconds at a flowrate of 10 μl/min.
(§2) Antibodies (approximately 1 ug/ml) are captured on the Protein A/G surface for 60 seconds at a flowrate of 10 μl/min resulting in capture levels of approximately 240 RU. Dilutions of each SIRP protein (Extracellular Domain+His-Tag, with the concentrations as indicated) are injected as analytes over the captured antibody for 300 seconds of association at a flowrate of 30 μl/min, followed by a dissociation for 600 seconds.
(§3) The above procedures are used to measure binding properties of antibodies of the present disclosure. For each analyte used, the highest concentration was as indicated in Example 3 (see Table 36).

[2] = target: T4, Human SIRPαV2 (CAA71403.1), Extracellular Domain + His-Tag (human, UniProt P78324 31-373); assay: as above
T4 construct: also called huSIRPαV2; hSIRPαV2; not shown: His-Tag
Method: as §1, §2, §3

[3] = target: T5, Human SIRPαV1 (NP_542970.1), Extracellular Domain + His-Tag (human, UniProt P78324 31-373); assay: as above
T5 construct: also called huSIRPαV1; hSIRPαV1; not shown: His-Tag
Method: as §1, §2, §3

[4] = target: T2, cynoSIRPα (XP_015313155), Extracellular …; assay: as above
Method: as §1, §2, §3

[5] = target: T3, cynoSIRPα (EGM_02252), Extracellular …; assay: SPR, antibody captured on Protein A/G, ECD-His analyte
Method: as §1, §2

T4 sequence (P78324 other isoform, or with tags, fused parts or gaps): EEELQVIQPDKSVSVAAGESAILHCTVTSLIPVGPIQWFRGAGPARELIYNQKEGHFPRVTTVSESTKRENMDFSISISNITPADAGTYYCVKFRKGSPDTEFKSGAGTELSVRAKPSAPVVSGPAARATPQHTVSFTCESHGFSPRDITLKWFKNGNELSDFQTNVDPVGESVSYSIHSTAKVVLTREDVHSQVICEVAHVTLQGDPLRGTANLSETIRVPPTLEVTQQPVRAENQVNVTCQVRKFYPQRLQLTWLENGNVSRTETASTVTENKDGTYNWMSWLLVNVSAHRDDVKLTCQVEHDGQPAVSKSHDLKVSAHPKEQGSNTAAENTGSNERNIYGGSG
T5 sequence (P78324 other isoform, or with tags, fused parts or gaps): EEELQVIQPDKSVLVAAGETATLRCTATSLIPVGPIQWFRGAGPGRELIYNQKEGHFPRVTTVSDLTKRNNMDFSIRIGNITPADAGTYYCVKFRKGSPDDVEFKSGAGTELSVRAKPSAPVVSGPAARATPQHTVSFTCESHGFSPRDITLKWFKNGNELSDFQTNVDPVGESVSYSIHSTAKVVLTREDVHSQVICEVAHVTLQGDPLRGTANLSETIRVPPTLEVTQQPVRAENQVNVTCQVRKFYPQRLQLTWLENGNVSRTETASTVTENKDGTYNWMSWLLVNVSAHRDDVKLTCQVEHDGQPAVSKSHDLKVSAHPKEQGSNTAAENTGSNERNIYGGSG

Binder	Kd [1]	koff [1]	kon [1]	Kd [2]	koff [2]	kon [2]	Kd [3]	koff [3]	kon [3]	Kd [4]	koff [4]	kon [4]	binding result [5]
B1	17.9 nM	0.00327 s⁻¹	183000 M⁻¹ s⁻¹	0.63 nM	0.00033 s⁻¹	523000 M⁻¹ s⁻¹	0.72 nM	0.000299 s⁻¹	414000 M⁻¹ s⁻¹	16.7 nM	0.00317 s⁻¹	190000 M⁻¹ s⁻¹	no binding (tested: 1000 nM)
B2	41 nM	0.00774 s⁻¹	189000 M⁻¹ s⁻¹	0.88 nM	0.000375 s⁻¹	429000 M⁻¹ s⁻¹	1.03 nM	0.000386 s⁻¹	374000 M⁻¹ s⁻¹	41.6 nM	0.00729 s⁻¹	175000 M⁻¹ s⁻¹	no binding (tested: 1000 nM)
B3	17.3 nM	0.00291 s⁻¹	168000 M⁻¹ s⁻¹	0.78 nM	0.000366 s⁻¹	472000 M⁻¹ s⁻¹	0.96 nM	0.000371 s⁻¹	385000 M⁻¹ s⁻¹	16.9 nM	0.00288 s⁻¹	170000 M⁻¹ s⁻¹	no binding (tested: 1000 nM)
B4	21.1 nM	0.00468 s⁻¹	222000 M⁻¹ s⁻¹	0.82 nM	0.000421 s⁻¹	511000 M⁻¹ s⁻¹	0.99 nM	0.000433 s⁻¹	438000 M⁻¹ s⁻¹	19.8 nM	0.00451 s⁻¹	228000 M⁻¹ s⁻¹	no binding (tested: 1000 nM)
B5	38.2 nM	0.00471 s⁻¹	123000 M⁻¹ s⁻¹	0.87 nM	0.000355 s⁻¹	406000 M⁻¹ s⁻¹	1.02 nM	0.000336 s⁻¹	331000 M⁻¹ s⁻¹	37.8 nM	0.00459 s⁻¹	121000 M⁻¹ s⁻¹	no binding (tested: 1000 nM)
B6	20.7 nM	0.00526 s⁻¹	254000 M⁻¹ s⁻¹	0.69 nM	0.000367 s⁻¹	535000 M⁻¹ s⁻¹	0.91 nM	0.000419 s⁻¹	459000 M⁻¹ s⁻¹	19.7 nM	0.00512 s⁻¹	260000 M⁻¹ s⁻¹	no binding (tested: 1000 nM)
B7	17.7 nM	0.0036 s⁻¹	204000 M⁻¹ s⁻¹	0.54 nM	0.000236 s⁻¹	435000 M⁻¹ s⁻¹	1.21 nM	0.00039 s⁻¹	322000 M⁻¹ s⁻¹	16.6 nM	0.00344 s⁻¹	207000 M⁻¹ s⁻¹	no binding (tested: 1000 nM)
B8	21.9 nM	0.00346 s⁻¹	158000 M⁻¹ s⁻¹	1.18 nM	0.000552 s⁻¹	468000 M⁻¹ s⁻¹	1.2 nM	0.000453 s⁻¹	378000 M⁻¹ s⁻¹	21.2 nM	0.00337 s⁻¹	159000 M⁻¹ s⁻¹	no binding (tested: 1000 nM)
